Source: the supplement of paper PMC11780869

Test system: Bacillus subtilis
Assay: cleaved RNA product abundance (RNA/gDNA barcode ratio) relative to median wild-type variant (ratio to wild type); higher = more accumulation of the downstream cleavage product
Settings: experiment (reporter, strain, medium): exp 8a: truncated aprE reporter, strain BJT201 with 2% xylose (RNase J1 expressed); cleavage site: glnRA (positions -5 to +31 mutated)
Method in brief: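 Oligos with a 9% error rate were used to build barcoded, mutagenized RNase Y cleavage-site windows within truncated aprE or tetM reporter mRNAs, which were integrated into the B. subtilis chromosome. Cultures were grown in LB at 37°C between OD600 0.0003 and 0.3. Cleaved RNA was gel-selected, reverse transcribed and barcode-sequenced, as were genomic DNA barcodes, and UMIs were collapsed. Cleaved product abundance is the scaled RNA:gDNA barcode ratio, with the median construct carrying the unmutated site as reference.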

Sequence | cleaved RNA product abundance
CGACATGTCCCGCTTCTTTCATTAATCCGTTATCAACTGTTTTGTTATATACATTTACCTTTTAAGAGGAGGAAT | 0.272
CGACATGTCCCGCTTCTTTCATTAATCCGTTATCAACTGTTTTTCTATATACATTTACCTTTTAAGAGGAGGAAT | 0.393
CGACATGTCCCGCTTCTTTCATTAATCCGTTATCAACTTTTTTGCTATATACATTTACCTTTTAAGAGGAGGAAT | 0.387
CGACATGTCCCGCTTCTTTCATTAATCCGTTATCAAGTGTTTTGCTATATACATTTACCTTTTAAGAGGAGGAAT | 0.202
CGACATGTCCCGCTTCTTTCATTAATCCGTTATCAATTGTTTTGCTATATACATTTACCTTTTAAGAGGAGGAAT | 0.199
CGACATGTCCCGCTTCTTTCATTAATCCGTTATCACCTGTTTTGCTATATACATTTACCTTTTAAGAGGAGGAAT | 0.198
CGACATGTCCCGCTTCTTTCATTAATCCGTTATCATCTGTTTTGCTATATACATTTACCTTTTAAGAGGAGGAAT | 0.267
CGACATGTCCCGCTTCTTTCATTAATCCGTTATCGACTGTTTTGCTATATACATTTACCTTTTAAGAGGAGGAAT | 0.257
CGACATGTCCCGCTTCTTTCATTAATCCGTTATGAACTGTTTTGCTATATACATTTACCTTTTAAGAGGAGGAAT | 0.252
CGACATGTCCCGCTTCTTTCATTAATCCGTTATTAACTGTTTTACTATATACATTTACCTTTTAAGAGGAGGAAT | 0.408
CGACATGTCCCGCTTCTTTCATTAATCCGTTATTAACTGTTTTGCTATATACATTTACCTTTTAAGAGGAGGAAT | 0.337
CGACATGTCCCGCTTCTTTCATTAATCCGTTCACAACTGTTTTGCTATATACATTTACCTTTTAAGAGGAGGAAT | 0.224
CGACATGTCCCGCTTCTTTCATTAATCCGTTCCCAACTGTTTTGCTATATACATTTACCTTTTAAGAGGAGGAAT | 0.392
CGACATGTCCCGCTTCTTTCATTAATCCGTTCGAAACTGTTTTGCTATATACATTTACCTTTTAAGAGGAGGAAT | 0.347
CGACATGTCCCGCTTCTTTCATTAATCCGTTCGCAACAGTTTTGCTATATACATTTACCTTTTAAGAGGAGGAAT | 0.419
CGACATGTCCCGCTTCTTTCATTAATCCGTTCGCAACTGTTATGCTATATACATTTACCTTTTAAGAGGAGGAAT | 0.349
CGACATGTCCCGCTTCTTTCATTAATCCGTTCGCAACTGTTTTACTATATACATTTACCTTTTAAGAGGAGGAAT | 0.418
CGACATGTCCCGCTTCTTTCATTAATCCGTTCGCAACTGTTTTGATATATACATTTACCTTTTAAGAGGAGGAAT | 0.334
CGACATGTCCCGCTTCTTTCATTAATCCGTTCGCAACTGTTTTGCTATAAACATTTACCTTTTAAGAGGAGGAAT | 0.122
CGACATGTCCCGCTTCTTTCATTAATCCGTTCGCAACTGTTTTGCTATATACATTTACCTTTTAAGAGGAGGAAT | 0.345
CGACATGTCCCGCTTCTTTCATTAATCCGTTCGCAACTGTTTTGCTATATACATTTACGTTTTAAGAGGAGGAAT | 0.342
CGACATGTCCCGCTTCTTTCATTAATCCGTTCGCAACTGTTTTGCTATATATATTTACCTTTTAAGAGGAGGAAT | 0.324

Sequence | cleaved RNA product abundance
CGACATGTCCCGCTTCTTTCATTAATCCGTTCGCAACTGTTTTGTTATATACATTTACCTTTTAAGAGGAGGAAT | 0.411
CGACATGTCCCGCTTCTTTCATTAATCCGTTCGCAACTTTTTTGCTATATACATTTACCTTTTAAGAGGAGGAAT | 0.381
CGACATGTCCCGCTTCTTTCATTAATCCGTTCGCAATTGTTTTGCTATATACATTTACCTTTTAAGAGGAGGAAT | 0.31
CGACATGTCCCGCTTCTTTCATTAATCCGTTGCCAACTGTTTTGCTATATACATTTACCTTTTAAGAGGAGGAAT | 0.264
CGACATGTCCCGCTTCTTTCATTAATCCGTTGGCAACTATTTTGCTATATACATTTACCTTTTAAGAGGAGGAAT | 0.866
CGACATGTCCCGCTTCTTTCATTAATCCGTTGGCAACTGATTTGCTATATACATTTACCTTTTAAGAGGAGGAAT | 0.729
CGACATGTCCCGCTTCTTTCATTAATCCGTTGGCAACTGTTTAGCTATATACATTTACCTTTTAAGAGGAGGAAT | 0.38
CGACATGTCCCGCTTCTTTCATTAATCCGTTGGCAACTGTTTTGCTATAAACATTTACCTTTTAAGAGGAGGAAT | 0.509
CGACATGTCCCGCTTCTTTCATTAATCCGTTGGCAACTGTTTTGCTATATACATTTACCTTTTAAGAGGAGGAAT | 0.739
CGACATGTCCCGCTTCTTTCATTAATCCGTTGGCAACTGTTTTGCTATATACATTTACTTTTTAAGAGGAGGAAT | 0.61
CGACATGTCCCGCTTCTTTCATTAATCCGTTGGCAACTGTTTTGCTATGTACATTTACCTTTTAAGAGGAGGAAT | 0.1
CGACATGTCCCGCTTCTTTCATTAATCCGTTGGCAATTGTTTTGCTATATACATTTACCTTTTAAGAGGAGGAAT | 1.12
CGACATGTCCCGCTTCTTTCATTAATCCGTTTACAACTGTTTTGCTATATACATTTACCTTTTAAGAGGAGGAAT | 0.276
CGACATGTCCCGCTTCTTTCATTAATCCGTTTGAAACTGTTTTGCTATATACATTTACCTTTTAAGAGGAGGAAT | 0.388
CGACATGTCCCGCTTCTTTCATTAATCCGTTTGCAAATGTTTTGCTATATACATTTACCTTTTAAGAGGAGGAAT | 0.446
CGACATGTCCCGCTTCTTTCATTAATCCGTTTGCAACTATTTTGCTATATACATTTACCTTTTAAGAGGAGGAAT | 0.859
CGACATGTCCCGCTTCTTTCATTAATCCGTTTGCAACTCTTTTGCTATATACATTTACCTTTTAAGAGGAGGAAT | 0.483
CGACATGTCCCGCTTCTTTCATTAATCCGTTTGCAACTGATTTGCTATATACATTTACCTTTTAAGAGGAGGAAT | 0.51
CGACATGTCCCGCTTCTTTCATTAATCCGTTTGCAACTGTTATGCTATATACATTTACCTTTTAAGAGGAGGAAT | 0.428
CGACATGTCCCGCTTCTTTCATTAATCCGTTTGCAACTGTTTAGCTATATACATTTACCTTTTAAGAGGAGGAAT | 0.517
CGACATGTCCCGCTTCTTTCATTAATCCGTTTGCAACTGTTTTACTATATACATTTACCTTTTAAGAGGAGGAAT | 0.879
CGACATGTCCCGCTTCTTTCATTAATCCGTTTGCAACTGTTTTGATATATACATTTACCTTTTAAGAGGAGGAAT | 0.421

Sequence | cleaved RNA product abundance
CGACATGTCCCGCTTCTTTCATTAATCCGTTTGCAACTGTTTTGCTAAATACATTTACCTTTTAAGAGGAGGAAT | 0.289
CGACATGTCCCGCTTCTTTCATTAATCCGTTTGCAACTGTTTTGCTACATACATTTACCTTTTAAGAGGAGGAAT | 0.623
CGACATGTCCCGCTTCTTTCATTAATCCGTTTGCAACTGTTTTGCTATACACATTTACCTTTTAAGAGGAGGAAT | 0.386
CGACATGTCCCGCTTCTTTCATTAATCCGTTTGCAACTGTTTTGCTATATACAATTACCTTTTAAGAGGAGGAAT | 0.478
CGACATGTCCCGCTTCTTTCATTAATCCGTTTGCAACTGTTTTGCTATATACATATACCTTTTAAGAGGAGGAAT | 0.478
CGACATGTCCCGCTTCTTTCATTAATCCGTTTGCAACTGTTTTGCTATATACATTGACCTTTTAAGAGGAGGAAT | 0.837
CGACATGTCCCGCTTCTTTCATTAATCCGTTTGCAACTGTTTTGCTATATACATTTAACTTTTAAGAGGAGGAAT | 0.827
CGACATGTCCCGCTTCTTTCATTAATCCGTTTGCAACTGTTTTGCTATATACATTTACATTTTAAGAGGAGGAAT | 0.626
CGACATGTCCCGCTTCTTTCATTAATCCGTTTGCAACTGTTTTGCTATATACATTTACCATTTAAGAGGAGGAAT | 0.88
CGACATGTCCCGCTTCTTTCATTAATCCGTTTGCAACTGTTTTGCTATATACATTTACCTTTTAAGAGGAGGAAT | 0.549
CGACATGTCCCGCTTCTTTCATTAATCCGTTTGCAACTGTTTTGCTATATACATTTACGTTTTAAGAGGAGGAAT | 0.661
CGACATGTCCCGCTTCTTTCATTAATCCGTTTGCAACTGTTTTGCTATATACATTTACTTTTTAAGAGGAGGAAT | 0.552
CGACATGTCCCGCTTCTTTCATTAATCCGTTTGCAACTGTTTTGCTATCTACATTTACCTTTTAAGAGGAGGAAT | 0.203
CGACATGTCCCGCTTCTTTCATTAATCCGTTTGCAACTGTTTTTCTATATACATTTACCTTTTAAGAGGAGGAAT | 0.768
CGACATGTCCCGCTTCTTTCATTAATCCGTTTGCAATTGTTTTGCTATATACATTTACCTTTTAAGAGGAGGAAT | 0.536
CGACATGTCCCGCTTCTTTCATTAATCCGTTTGCACCTGTTTTGCTATATACATTTACCTTTTAAGAGGAGGAAT | 0.295
CGACATGTCCCGCTTCTTTCATTAATCCGTTTGCATCTGTTTTGCTATATACATTTACCTTTTAAGAGGAGGAAT | 0.274
CGACATGTCCCGCTTCTTTCATTAATCCGTTTTCAACTGTTTTGCTATATACATTTACCTTTTAAGAGGAGGAAT | 0.247
CGACATGTCCCGCTTCTTTCATTAATCCTATAGCAACTGTTTTGCTATATACATTTACCTTTTAAGAGGAGGAAT | 0.458
CGACATGTCCCGCTTCTTTCATTAATCCTCTAGCAACTGTTTTGCTATATACATTTACCTTTTAAGAGGAGGAAT | 0.492
CGACATGTCCCGCTTCTTTCATTAATCCTTAAGCAACTGTTTTGCTATATACATTTACCTTTTAAGAGGAGGAAT | 0.419
CGACATGTCCCGCTTCTTTCATTAATCCTTAGCACCTGTTTTGCTATATACATTATCCTTTTAAGAGGAGGAATT | 0.144
